The source of these data is paper PMC3281585 (Science (New York, N.Y.), 2011).

Sequences and labels used below:
B2: gp44 protein of the T4 clamp loader (natural protein, bacteriophage T4)
chain: MITVNEKEHILEQKYRPSTIDECILPAFDKETFKSITSKGKIPHIILHSPSPGTGKTTVAKALCHDVNADMMFVNGSDCKIDFVRGPLTNFASAASFDGRQKVIVIDEFDRSGLAESQRHLRSFMEAYSSNCSIIITANNIDGIIKPLQSRCRVITFGQPTDEDKIEMMKQMIRRLTEICKHEGIAIADMKVVAALVKKNFPDFRKTIGELDSYSSKGVLDAGILSLVTNDRGAIDDVLESLKNKDVKQLRALAPKYAADYSWFVGKLAEEIYSRVTPQSIIRMYEIVGENNQYHGIAANTELHLAYLFIQLACEMQWK

For data set [1], the target named is B2. Put plainly: crystal structure.
The data set “crystal structure” concerns the molecule itself. Put plainly: crystal structure.

B1: gp62 protein of the T4 clamp loader (natural protein, bacteriophage T4)
chain: SLFKDDIQLNEHQVAWYSKDWTAVQSAADSFKEKAENEFFEIIGAINNKTKCSIAQKDYSKFMVENALSQFPECMPAVYAMNLIGSGLSDEAHFNYLMAAVPRGKRYGKWAKLVEDSTEVLIIKLLAKRYQVNTNDAINYKSILTKNGKLPLVLKELKGLVTDDFLKEVTKNVKEQKQLKKLALEW
Turning to B1, the binding result in data set [1] is “binds”.

Consider B2, for which the binding result in “crystal structure” was “binds”.
